Where two headings read alike, the source gives them in different places.
Tests used:
[1] = Co-formulation study of ectodomain-based traps with incretin mimetics (monomer content by SEC / RP-HPLC, integrity, stability); assay type: physicochemical; settings: retatrutide formulations, 20 mM NaPO4, glycine, sucrose, histidine pH 7.5
Protocol: In each case, the following parameters were assessed: a) monomer content (size exclusion chromatography), b) activin A and GDF-8 neutralization (cell-based assays [CBAs]), c) activin A binding (ELISA), d) GLP-1 receptor binding (ELISA).
In each case, the following parameters were assessed: a) monomer content (size exclusion chromatography), b) activin A and GDF-8 neutralization (cell-based assays [CBAs]), and c) GLP-1 receptor activation (CBA).
Given that protein aggregation can be indicative of reduced conformational stability and decreased activity, Size-Exclusion Chromatography-High Performance Liquid Chromatography (SEC-HPLC) was used to determine the purity of each ActRIIB-ECD construct. This method measured the percentage of intact monomeric species as well as the presence of aggregates and/or degradation products.
In some instances, the method used to assess the purity of an agent was based on a reversed-phase high-performance liquid chromatography (RP-HPLC) setup with a C18 column. The mobile phases consisted of acetonitrile with 0.1% formic acid (organic phase) and water with 0.1% formic acid (aqueous phase). […] Formic acid anions form an ion pair with positively charged peptides, increasing their hydrophobicity and therefore their retention time. Detection was performed using a UV detector, at 280 nm.

[2] = target: T1, GIP receptor (GIPR) on CHO-K1 cells stably overexpressing GIPR (UniProt P48546); assay: cell-based or functional assay
T1 sequence (looked up): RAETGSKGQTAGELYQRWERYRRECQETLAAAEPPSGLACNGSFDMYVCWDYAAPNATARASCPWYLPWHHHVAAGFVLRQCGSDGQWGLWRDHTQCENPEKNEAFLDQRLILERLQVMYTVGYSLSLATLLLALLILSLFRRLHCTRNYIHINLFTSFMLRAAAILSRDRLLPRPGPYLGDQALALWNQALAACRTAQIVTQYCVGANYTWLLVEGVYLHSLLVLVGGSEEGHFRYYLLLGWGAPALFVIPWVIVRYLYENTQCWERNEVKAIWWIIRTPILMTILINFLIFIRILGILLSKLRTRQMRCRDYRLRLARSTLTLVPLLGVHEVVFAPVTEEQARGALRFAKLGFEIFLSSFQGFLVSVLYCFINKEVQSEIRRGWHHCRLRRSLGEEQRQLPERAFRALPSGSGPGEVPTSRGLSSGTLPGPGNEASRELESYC

[3] = target: GLP-1 receptor (GLP-1R) on CHO-K1 cells stably overexpressing GLP-1R (UniProt P43220); assay: cell-based or functional assay
Chain of GLP-1 receptor (GLP-1R) on CHO-K1 cells stably overexpressing GLP-1R (P43220 24-463 limits assumed): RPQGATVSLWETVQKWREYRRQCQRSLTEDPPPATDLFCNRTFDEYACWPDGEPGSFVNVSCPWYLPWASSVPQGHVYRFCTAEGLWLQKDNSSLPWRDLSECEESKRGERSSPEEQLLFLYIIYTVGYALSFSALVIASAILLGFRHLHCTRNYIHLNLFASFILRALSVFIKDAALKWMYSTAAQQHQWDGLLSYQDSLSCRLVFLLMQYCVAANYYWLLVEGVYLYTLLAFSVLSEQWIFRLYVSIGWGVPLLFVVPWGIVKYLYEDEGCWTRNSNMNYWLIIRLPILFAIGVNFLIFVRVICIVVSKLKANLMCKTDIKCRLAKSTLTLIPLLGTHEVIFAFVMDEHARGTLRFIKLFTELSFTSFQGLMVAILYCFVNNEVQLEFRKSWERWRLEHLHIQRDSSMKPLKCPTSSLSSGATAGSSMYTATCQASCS

[4] = target: T1, GIP receptor (GIPR) on CHO-K1 cells stably overexpressing GIPR; assay: cell-based or functional assay; remark: listed apart in the source
[5] = target: GLP-1 receptor (GLP-1R) on CHO-K1 cells stably overexpressing GLP-1R (UniProt P43220); assay: cell-based or functional assay; remark: listed apart in the source
DIO mice = assay: Body composition in high fat diet mice, alone and in combination with incretin mimetics; assay type: in vivo; settings: for Fat mass (% change from baseline) / Lean mass (% change from baseline): as E44, NMR
Protocol: Experiments were performed in vivo to investigate the potential for additive or synergistic effects between exemplary ActRIIB-ECD polypeptide constructs and incretin mimetics.

CC[C@H](C)[C@H](NC(=O)[C@H](Cc1ccccc1)NC(=O)[C@H](C)NC(=O)C(C)(C)NC(=O)[C@H](CCC(N)=O)NC(=O)[C@H](C)NC(=O)[C@H](CCCCNC(=O)COCCOCCNC(=O)CC[C@H](NC(=O)CCCCCCCCCCCCCCCCCCC(=O)O)C(=O)O)NC(=O)[C@H](CCCCN)NC(=O)[C@H](CC(=O)O)NC(=O)[C@H](CC(C)C)NC(=O)[C@](C)(CC(C)C)NC(=O)[C@@H](NC(=O)[C@H](CO)NC(=O)[C@H](Cc1ccc(O)cc1)NC(=O)[C@H](CC(=O)O)NC(=O)[C@H](CO)NC(=O)[C@@H](NC(=O)[C@H](Cc1ccccc1)NC(=O)[C@@H](NC(=O)CNC(=O)[C@H](CCC(N)=O)NC(=O)C(C)(C)NC(=O)[C@@H](N)Cc1ccc(O)cc1)[C@@H](C)O)[C@@H](C)O)[C@@H](C)CC)C(=O)N[C@@H](CCC(=O)O)C(=O)N[C@@H](Cc1ccc(O)cc1)C(=O)N[C@@H](CC(C)C)C(=O)N[C@@H](CC(C)C)C(=O)N[C@@H](CCC(=O)O)C(=O)NCC(=O)NCC(=O)N1CCC[C@H]1C(=O)N[C@@H](CO)C(=O)N[C@@H](CO)C(=O)NCC(=O)N[C@@H](C)C(=O)N1CCC[C@H]1C(=O)N1CCC[C@H]1C(=O)N1CCC[C@H]1C(=O)N[C@@H](CO)C(N)=O [Retatrutide alone]
Monomer Content (%) Retatrutide ([1]; D 0): 100% | Monomer Content (%) Retatrutide ([1]; D 7, 2-8° C.): 100% | Monomer Content (%) Retatrutide ([1]; D 7, RT): 100% | Monomer Content (%) Retatrutide ([1]; D 14, 2-8° C.): 100% | Monomer Content (%) Retatrutide ([1]; D 14, RT): 100% | Monomer Content (%) Retatrutide ([1]; D 28, 2-8° C.): 100% | Monomer Content (%) Retatrutide ([1]; D 28, RT): 100% | Monomer Content (%) Retatrutide ([1]; D 56, 2-8° C.): 100% | Monomer Content (%) Retatrutide ([1]; D 56, RT): 100%

retatrutide (peptide)
CBA potency GIPR; P1372 + retatrutide; D 0 [2]: 0.94 pM | CBA potency GIPR; P1372 + retatrutide; D 7 2-8°C [2]: 0.98 pM | CBA potency GIPR; P1372 + retatrutide; D 7 RT [2]: 0.98 pM | CBA potency GIPR; P1372 + retatrutide; D 14 2-8°C [2]: 1.1 pM | CBA potency GIPR; P1372 + retatrutide; D 14 RT [2]: 0.76 pM | CBA potency GIPR; P1372 + retatrutide; D 28 2-8°C [2]: 1 pM | CBA potency GIPR; P1372 + retatrutide; D 28 RT [2]: 0.84 pM | CBA potency GIPR; P1372 + retatrutide; D 56 2-8°C [2]: 0.85 pM | CBA potency GIPR; P1372 + retatrutide; D 56 RT [2]: 0.75 pM | CBA potency GIPR; Retatrutide alone; D 0 [2]: 0.74 pM | CBA potency GIPR; Retatrutide alone; D 7 2-8°C [2]: 1 pM | CBA potency GIPR; Retatrutide alone; D 7 RT [2]: 0.87 pM | CBA potency GIPR; Retatrutide alone; D 14 2-8°C [2]: 1 pM | CBA potency GIPR; Retatrutide alone; D 14 RT [2]: 1.2 pM | CBA potency GIPR; Retatrutide alone; D 28 2-8°C [2]: 1.1 pM | CBA potency GIPR; Retatrutide alone; D 28 RT [2]: 1.1 pM | CBA potency GIPR; Retatrutide alone; D 56 2-8°C [2]: 0.84 pM | CBA potency GIPR; Retatrutide alone; D 56 RT [2]: 0.82 pM | CBA potency GLP-1R; P1372 + retatrutide; D 0 [3]: 3 pM | CBA potency GLP-1R; P1372 + retatrutide; D 7 2-8°C [3]: 2 pM | CBA potency GLP-1R; P1372 + retatrutide; D 7 RT [3]: 1.8 pM | CBA potency GLP-1R; P1372 + retatrutide; D 14 2-8°C [3]: 4.1 pM | CBA potency GLP-1R; P1372 + retatrutide; D 14 RT [3]: 3.3 pM | CBA potency GLP-1R; P1372 + retatrutide; D 28 2-8°C [3]: 2.9 pM | CBA potency GLP-1R; P1372 + retatrutide; D 28 RT [3]: 2.1 pM | CBA potency GLP-1R; P1372 + retatrutide; D 56 2-8°C [3]: 2.3 pM | CBA potency GLP-1R; P1372 + retatrutide; D 56 RT [3]: 2.3 pM | CBA potency GLP-1R; Retatrutide alone; D 0 [3]: 3 pM | CBA potency GLP-1R; Retatrutide alone; D 7 2-8°C [3]: 1.8 pM | CBA potency GLP-1R; Retatrutide alone; D 7 RT [3]: 2.5 pM | CBA potency GLP-1R; Retatrutide alone; D 14 2-8°C [3]: 3.1 pM | CBA potency GLP-1R; Retatrutide alone; D 14 RT [3]: 5.6 pM | CBA potency GLP-1R; Retatrutide alone; D 28 2-8°C [3]: 2.7 pM | CBA potency GLP-1R; Retatrutide alone; D 28 RT [3]: 2.7 pM | CBA potency GLP-1R; Retatrutide alone; D 56 2-8°C [3]: 2.1 pM | CBA potency GLP-1R; Retatrutide alone; D 56 RT [3]: 1.9 pM

tirzepatide (peptide)
CBA potency GIPR; P1372 + tirzepatide; D 0 [4]: 1.3 pM | CBA potency GIPR; P1372 + tirzepatide; D 7 2-8°C [4]: 1 pM | CBA potency GIPR; P1372 + tirzepatide; D 7 RT [4]: 0.99 pM | CBA potency GIPR; P1372 + tirzepatide; D 14 2-8°C [4]: 0.98 pM | CBA potency GIPR; P1372 + tirzepatide; D 14 RT [4]: 1 pM | CBA potency GIPR; P1372 + tirzepatide; D 28 2-8°C [4]: 1.3 pM | CBA potency GIPR; P1372 + tirzepatide; D 28 RT [4]: 1.5 pM | CBA potency GIPR; P1372 + tirzepatide; D 56 2-8°C [4]: 1.9 pM | CBA potency GIPR; Tirzepatide alone; D 0 [4]: 1.5 pM | CBA potency GIPR; Tirzepatide alone; D 7 2-8°C [4]: 1.1 pM | CBA potency GIPR; Tirzepatide alone; D 7 RT [4]: 1.2 pM | CBA potency GIPR; Tirzepatide alone; D 14 2-8°C [4]: 0.84 pM | CBA potency GIPR; Tirzepatide alone; D 14 RT [4]: 0.82 pM | CBA potency GIPR; Tirzepatide alone; D 28 2-8°C [4]: 1.6 pM | CBA potency GIPR; Tirzepatide alone; D 28 RT [4]: 1.4 pM | CBA potency GIPR; Tirzepatide alone; D 56 2-8°C [4]: 1.9 pM | CBA potency GIPR; Tirzepatide alone; D 56 RT [4]: 2 pM | CBA potency GLP-1R; P1372 + tirzepatide; D 0 [5]: 5.3 pM | CBA potency GLP-1R; P1372 + tirzepatide; D 7 2-8°C [5]: 3.2 pM | CBA potency GLP-1R; P1372 + tirzepatide; D 7 RT [5]: 3.3 pM | CBA potency GLP-1R; P1372 + tirzepatide; D 14 2-8°C [5]: 2.9 pM | CBA potency GLP-1R; P1372 + tirzepatide; D 14 RT [5]: 2.8 pM | CBA potency GLP-1R; P1372 + tirzepatide; D 28 2-8°C [5]: 5.5 pM | CBA potency GLP-1R; P1372 + tirzepatide; D 28 RT [5]: 5.4 pM | CBA potency GLP-1R; P1372 + tirzepatide; D 56 2-8°C [5]: 9.3 pM | CBA potency GLP-1R; P1372 + tirzepatide; D 56 RT [5]: 10 pM | CBA potency GLP-1R; Tirzepatide alone; D 0 [5]: 4.3 pM | CBA potency GLP-1R; Tirzepatide alone; D 7 2-8°C [5]: 4.6 pM | CBA potency GLP-1R; Tirzepatide alone; D 7 RT [5]: 3.7 pM | CBA potency GLP-1R; Tirzepatide alone; D 14 2-8°C [5]: 2.4 pM | CBA potency GLP-1R; Tirzepatide alone; D 14 RT [5]: 3.3 pM | CBA potency GLP-1R; Tirzepatide alone; D 28 2-8°C [5]: 5.6 pM | CBA potency GLP-1R; Tirzepatide alone; D 28 RT [5]: 5 pM | CBA potency GLP-1R; Tirzepatide alone; D 56 2-8°C [5]: 8.3 pM | CBA potency GLP-1R; Tirzepatide alone; D 56 RT [5]: 8.4 pM | CBA potency GIPR; P1372 + tirzepatide; D 0 [2]: 1.5 pM | CBA potency GIPR; P1372 + tirzepatide; D 7 2-8°C [2]: 1.7 pM | CBA potency GIPR; P1372 + tirzepatide; D 7 RT [2]: 2.1 pM | CBA potency GIPR; P1372 + tirzepatide; D 14 2-8°C [2]: 1.5 pM | CBA potency GIPR; P1372 + tirzepatide; D 14 RT [2]: 1.8 pM | CBA potency GIPR; P1372 + tirzepatide; D 28 2-8°C [2]: 2 pM | CBA potency GIPR; P1372 + tirzepatide; D 28 RT [2]: 2.8 pM | CBA potency GIPR; P1372 + tirzepatide; D 56 2-8°C [2]: 1.6 pM | CBA potency GIPR; P1372 + tirzepatide; D 56 RT [2]: 1.7 pM | CBA potency GIPR; Tirzepatide alone; D 0 [2]: 1.6 pM | CBA potency GIPR; Tirzepatide alone; D 7 2-8°C [2]: 2.8 pM | CBA potency GIPR; Tirzepatide alone; D 7 RT [2]: 2.8 pM | CBA potency GIPR; Tirzepatide alone; D 14 2-8°C [2]: 2.2 pM | CBA potency GIPR; Tirzepatide alone; D 14 RT [2]: 1.7 pM | CBA potency GIPR; Tirzepatide alone; D 28 2-8°C [2]: 2.2 pM | CBA potency GIPR; Tirzepatide alone; D 28 RT [2]: 2.1 pM | CBA potency GIPR; Tirzepatide alone; D 56 2-8°C [2]: 1.5 pM | CBA potency GIPR; Tirzepatide alone; D 56 RT [2]: 1.5 pM | CBA potency GLP-1R; P1372 + tirzepatide; D 0 [3]: 9.3 pM | CBA potency GLP-1R; P1372 + tirzepatide; D 7 2-8°C [3]: 13 pM | CBA potency GLP-1R; P1372 + tirzepatide; D 7 RT [3]: 12 pM | CBA potency GLP-1R; P1372 + tirzepatide; D 14 RT [3]: 13 pM | CBA potency GLP-1R; P1372 + tirzepatide; D 28 2-8°C [3]: 14 pM | CBA potency GLP-1R; P1372 + tirzepatide; D 28 RT [3]: 13 pM | CBA potency GLP-1R; P1372 + tirzepatide; D 56 2-8°C [3]: 7.4 pM | CBA potency GLP-1R; P1372 + tirzepatide; D 56 RT [3]: 7.7 pM | CBA potency GLP-1R; Tirzepatide alone; D 0 [3]: 11 pM | CBA potency GLP-1R; Tirzepatide alone; D 7 2-8°C [3]: 11 pM | CBA potency GLP-1R; Tirzepatide alone; D 7 RT [3]: 13 pM | CBA potency GLP-1R; Tirzepatide alone; D 14 2-8°C [3]: 17 pM | CBA potency GLP-1R; Tirzepatide alone; D 14 RT [3]: 23 pM | CBA potency GLP-1R; Tirzepatide alone; D 28 2-8°C [3]: 14 pM | CBA potency GLP-1R; Tirzepatide alone; D 28 RT [3]: 12 pM | CBA potency GLP-1R; Tirzepatide alone; D 56 2-8°C [3]: 7 pM | CBA potency GLP-1R; Tirzepatide alone; D 56 RT [3]: 6.7 pM

tirzepatide [reference compound]
Body weight (% change from baseline) (DIO mice; DIO mice, 21 days s.c., P1307 20 mg/kg weekly, P1229 40 mg/kg twice weekly, semaglutide 40 μg/kg daily, tirzepatide 45 μg/kg daily, alone or combined): −26.8% | visceral, epididymal, pericardial, peri-renal, and retroperitoneal white adipose tissue weights (DIO mice; DIO mice, D21): significantly decreased all white adipose tissue weights | gastrocnemius and tibialis anterior weights (DIO mice; DIO mice, D21, P1229 with or without caloric restriction): no significant effect on muscle weights | Fat mass (% change from baseline) (DIO mice): −46.2% | Lean mass (% change from baseline) (DIO mice): −14.5% | Fat mass (% change from baseline) (DIO mice; listed as tirzepatide): −46.2% | Lean mass (% change from baseline) (DIO mice; listed as tirzepatide): −14.5%
